According to the RNAGym collection of RNA variant scans (doi:10.7554/elife.90254):

B1: LINE1-full (parent)
chain: UACGUAGGUGGUUUUCCCCUGAUAGUGCUAAGGGGGCCUGGAAGUUUGGACUGGGCAGAGCUCAACACAGCGUGGCAAAGUGGCUGUGGCUAGACUGCCUCUCUGGAUUCCUCGUCACUCAGCAGGGCAUCUCUGAGAGAAAUGCC

Variants of: B1
Test: self-cleavage, relative activity (ratio to wild type); higher = more cleavage; in vitro, sequencing; the parent is a self-cleaving ribozyme

Variant | self-cleavage
U47A A94U | 0.18
U47C A69U | 0.06
U47C A69C | 0.07
U47C C71A | 0.68
U47A U91C | 0.63
U47A G137U | 1.36
U47G A59U | 1
U47C A65U | 0.1
U47G A57G | 0.62
U47G A64G | 0.23
U47C G72U | 2.51
U47C A142C | 1.3
U47C A117G | 1.81
U47C A117U | 1.33
U47C G86U | 0.13
U47C G86A | 0.06
U47C U91A | 0.97
U47C G54U | 1.48
U47C G54A | 0.59
U47C A77C | 0.34
U47C C128A | 0.73
U47A U109C | 1.19
U47C U96A | 0.1
U47A A136U | 1.48

Variant | self-cleavage
U47G U62A | 0.03
U47A G72A | 0.95
U47A A107U | 1.79
U47C C51U | 1.14
U47G U73A | 1.18
U47A C63U | 0.33
U47C A94G | 0.51
U47A U81C | 1.57
U47C A67U | 0.2
U47C A67G | 0.88
U47C C131U | 1.91
U47C U85A | 0.13
U47C U85C | 0.24
U47G U102A | 1.34
G48A U85C | 0.1
G48A U85A | 0.05
U47C U100C | 2.49
G48A A57G | 0.6
U47A A121U | 1.04
U47A A121G | 1.39
G48A U100C | 1.9
G48A U81C | 1.14
U47C C90G | 0.04
G48A U102A | 1.71

Variant | self-cleavage
U47A G127U | 1.67
U47A U132A | 1.34
G48A U130C | 1.53
G48C A142G | 1.38
G48A A78G | 1.21
G48A A92G | 0.09
G48A G55U | 0.19
U47G U104C | 1.48
U47C C61U | 0.05
U47C A78G | 1.64
U47A C146U | 1.68
U47A A92U | 0.5
U47C A129U | 1.74
U47G U91A | 1.93
U47A C76U | 1.83
U47C U81A | 2.45
U47C U81G | 1.13
U47G | 1.14
U47C | 1.47
G48A U52A | 1.22
U47C A79U | 1.76
G48A U112C | 1.45
G48A U112A | 0.83
U47A C90U | 0.03

Variant | self-cleavage
U47G A67G | 0.06
U47C A57G | 1.54
U47G A138G | 0.98
U47A U143C | 1.39
U47C A136G | 0.99
U47G U109C | 2.63
G48A A140U | 1.28
U47C G125U | 1.39
U47A U134C | 1.39
U47A G88U | 0.03
U47C G53U | 1.3
U47A A129G | 1.43
U47C U87C | 0.48
G48A A124U | 1.02
G48A A124G | 0.92
U47C U102C | 1.9
U47A C113U | 1.17
U47C U115A | 1.75
U47C G82A | 2.09
U47A A140U | 1.25
U47A U85C | 0.12
U47G U143C | 1.31
U47C U134C | 1.74
U47A A138G | 1.39

Variant | self-cleavage
U47C A141G | 1.51
U47C C84A | 0.15
U47C U112C | 2
U47C U112A | 1.02
G48A A50G | 0.53
U47C A50U | 1.5
U47G C68U | 0.06
U47G A142G | 1.33
U47A C111A | 1.18
U47C G97A | 0.59
U47C G97C | 1.3
G48C | 1.01
G48U | 0.94
G48A | 1.28
G48A U62A | 0.02
G48A U109A | 2.18
U47G A141G | 1.45
U47G U100A | 0.42
U47A A142G | 1.4
U47G A69G | 0.67
U47A U119C | 1.53
U47A G106C | 2.21
G48A A129U | 1.13
G48A U73A | 1.36

Variant | self-cleavage
U47C U119C | 1.48
U47C U143A | 1.63
U47A U62A | 0.05
U47A U62C | 0.06
U47A U52C | 1.37
U47A U87A | 0.11
U47C A124U | 1.68
U47C A124G | 1.59
U47C A124C | 1.31
U47A A124G | 0.79
U47A G86A | 0.07
U47G A65G | 0.1
U47C A140G | 1.52
U47A C68U | 0.13
U47A U100G | 1.93
U47C G55A | 0.65
U47C U52C | 1.18
U47A U102A | 1.35
U47A U102C | 1.19
U47C C120U | 1.72
U47A C110U | 0.95
G48A U87C | 0.12
U47C G144A | 1.44
G48A G72A | 0.96

Variant | self-cleavage
U47G A129G | 1.31
U47A U104C | 1.54
G48A A64U | 0.39
U47C G75A | 1.95
G48A U91C | 0.09
U47C U104A | 1.23
U47C U104C | 2.24
U47C U104G | 1.2
U47C G89U | 0.04
G48A A79G | 1.43
U47A U108C | 1.22
U47C C95A | 0.09
G48A A59G | 0.03
U47G A92G | 0.17
U47G U130A | 1.23
U47A C123U | 0.7
U47A U115C | 1.39
U47A U115A | 1.05
U47C G74C | 1.61
U47C C76U | 1.77
U47G C111U | 1.62
U47C A138G | 1.53
U47A U96C | 0.13
